US20100099203A1

Columns and labels:
Protein A [1] = molecular target: Protein A (UniProt P38507); test: Back scattering interferometry, free solution in PBS, 0.67 uM Protein A with IgG varied over 6 concentrations, 2 h at room temperature, PEG-5mer passivated chip
Protein A [2] = molecular target: Protein A (UniProt P38507); test: Back scattering interferometry, free solution in PBS, 0.67 uM Protein A with IgG varied over 6 concentrations, 2 h at room temperature, PEG 200 passivated chip

Kd (Protein A [1])	Kd (Protein A [2])	Substance
8 nM	–	IgG (antibody)
–	35 nM	IgG Fc segment
